Laboratory results reported in PMC9674292.

Legend:
EGFP-VopF (V. cholerae) = test: stepwise photobleaching of single-molecule speckles (TIRF, live cells); XTC cells with very low levels of EGFP-VopF or EGFP-VopL; speckles arrested with 10 nM latrunculin A; continuous 488-nm illumination; distribution of bleaching steps compared with a binomial model (probability of EGFP being fluorescent 0.75)
[1] = target: EGFP-VopL (V. parahaemolyticus); test: as above

EGFP-VopF (natural protein)
stoichiometry N (EGFP-VopF (V. cholerae)): 2

EGFP-VopL (natural protein)
stoichiometry N [1]: 2
